In FireProtDB:
“And” between values parts separate entries of the source, which are not always exact repeats. Equal values may be shown once.

Settings: whole UniProt chain shown
[1] = Homo sapiens, pH 2.2, 25 °C, GdnHCl, CD, Sodium cacodylate 50 mM, NaCl 50 mM
[2] = Homo sapiens, pH 8, 25 °C, GdnHCl, CD, Tris-HCl 20 mM
[3] = Homo sapiens, pH 7, Thermal, DSC, Tris-Maleate 0.02M, KCl 0.1 M, transition: 2, reversible: no
[4] = Homo sapiens, pH 7, Thermal, DSC, Tris-Maleate / KCL 20000 / 100000, transition: 2, reversible: no
[5] = Homo sapiens, pH 4, 25 °C, GdnHCl, CD, Tris sodium acetate MES 50 mM 20 mM 20 mM
[6] = Homo sapiens, pH 7, 25 °C, GdnHCl, CD, Tris sodium acetate MES 50 mM 20 mM 20 mM
[7] = Escherichia phage lambda, pH 5.6, 37 °C, Urea, CD, Acetic acid(deuterated) 10 mM, NaCl 100 mM, reversible: yes
[8] = Escherichia phage lambda, pH 6.6, 20 °C, GdnHCl, CD, Potassium phosphate 50 mM, KCl 100 mM, reversible: yes
[9] = Escherichia phage lambda, pH 7, 5 °C, GdnHCl, CD, Potassium phosphate 50 mM, KCl 100 mM, reversible: yes (70-100%)
[10] = Escherichia phage lambda, pH 7, 25 °C, GdnHCl, CD, Potassium phosphate 50 mM, KCl 100 mM, reversible: yes (70-100%)
[11] = Escherichia phage lambda, pH 7, Thermal, DSC, Bis-Tris 10 mM, KCl 200 mM, reversible: yes (88%)
[12] = Escherichia phage lambda, pH 7, Thermal, DSC, Bis-Tris 10 mM, KCl 200 mM, reversible: yes
[13] = Escherichia phage lambda, pH 8, Thermal, CD, KD2PO4 20 mM, NaCl 100 mM, reversible: yes (>90%)
[14] = Escherichia phage lambda, pH 8, Thermal, DSC, Potassium phosphate 10 mM, KCl 200 mM, reversible: no
[15] = Escherichia phage lambda, pH 8, Thermal, DSC, Potassium phosphate 10 mM, KCl 200 mM, reversible: yes (95%)

B1: Alpha-lactalbumin wild type, P00709 (protein)
chain: MRFFVPLFLVGILFPAILAKQFTKCELSQLLKDIDGYGGIALPELICTMFHTSGYDTQAIVENNESTEYGLFQISNKLWCKSSQVPQSRNICDISCDKFLDDDITDDIMCAKKILDIKGIDYWLAHKALCTEKLEQWLCEKL
In the case of B1, the denaturant m value [1] is reported as 0.95 kcal/mol/M, the “denaturant midpoint (higher = more stable)” value (“denaturant midpoint” below) [1] is reported as 4.67 M and the unfolding free energy [1] is reported as 4.45 kcal/mol. The “heat capacity change of unfolding” value (Homo sapiens, pH 7, Thermal, CD, Sodium cacodylate 50 mM, NaCl 50 mM, reversible: yes) was 1.1 kcal/mol/K, the unfolding free energy (Homo sapiens, pH 7.3, 25 °C, GdnHCl, CD, Tris-HCl 0.05 M, reversible: yes) was 6.8 kcal/mol and the denaturant m value [2] was 0.85 kcal/mol/M. For the same protein, the “denaturant midpoint” value [2] was 3.09 M and the unfolding free energy [2] was 2.63 kcal/mol.

B2: Ovalbumin wild type, P01012 (protein)
chain: MGSIGAASMEFCFDVFKELKVHHANENIFYCPIAIMSALAMVYLGAKDSTRTQINKVVRFDKLPGFGDSIEAQCGTSVNVHSSLRDILNQITKPNDVYSFSLASRLYAEERYPILPEYLQCVKELYRGGLEPINFQTAADQARELINSWVESQTNGIIRNVLQPSSVDSQTAMVLVNAIVFKGLWEKAFKDEDTQAMPFRVTEQESKPVQMMYQIGLFRVASMASEKMKILELPFASGTMSMLVLLPDEVSGLEQLESIINFEKLTEWTSSNVMEERKIKVYLPRMKMEEKYNLTSVLMAMGITDVFSSSANLSGISSAESLKISQAVHAAHAEINEAGREVVGSAEAGVDAASVSEEFRADHPFLFCIKHIATNAVLFFGRCVSP
Protein B2 has a Tm (Gallus gallus, pH 6, Thermal, DSC, Na-phosphate) of 72.4 °C, a Tm (Gallus gallus, pH 7, Thermal, DSC, Phosphate, transition: 3, reversible: No) of 82.5 °C and a Tm (Gallus gallus, pH 7, Thermal, DSC, Unknown, transition: 3, reversible: No) of 78.4 °C.

B3: Matrilysin wild type, P09237 (protein)
chain: MRLTVLCAVCLLPGSLALPLPQEAGGMSELQWEQAQDYLKRFYLYDSETKNANSLEAKLKEMQKFFGLPITGMLNSRVIEIMQKPRCGVPDVAEYSLFPNSPKWTSKVVTYRIVSYTRDLPHITVDRLVSKALNMWGKEIPLHFRKVVWGTADIMIGFARGAHGDSYPFDGPGNTLAHAFAPGTGLGGDAHFDEDERWTDGSSLGINFLYAATHELGHSLGMGHSSDPNAVMYPTYGNGDPQNFKLSQDDIKGIQKLYGKRSNSRKK
With B3 the Tm [3] was 98.3 °C, the “unfolding enthalpy (calorimetric)” value [3] was 13.7 kcal/mol and the Tm [4] was 98.3 °C. The “unfolding enthalpy (calorimetric)” value [4] was 13.8 kcal/mol.

B4: Interleukin-2 wild type, Q7Z7M3 (protein)
chain: MPTSSSTKKTQLQLEHLLLDLQMILNGINNYKNPKLTRMLTFKFYMPKKATELKHLQCLEEELKPLKEVLNLAQSKNFHLRPRDLISNINVIVLELKGSETTFMCEYADETATIVEFLNRWITFSQSIISTLT
With B4 the “denaturant midpoint” value [5] was 4.4 M, the unfolding free energy [5] was 9.9 kcal/mol and the “denaturant midpoint” value [6] was 3.8 M. It also gave an unfolding free energy [6] of 9.3 kcal/mol.

B5: Repressor protein cI wild type, P03034 (protein)
chain: MSTKKKPLTQEQLEDARRLKAIYEKKKNELGLSQESVADKMGMGQSGVGALFNGINALNAYNAALLAKILKVSVEEFSPSIAREIYEMYEAVSMQPSLRSEYEYPVFSHVQAGMFSPELRTFTKGDAERWVSTTKKASDSAFWLEVEGNSMTAPTGSKPSFPDGMLILVDPEQAVEPGDFCIARLGGDEFTFKKLIRDSGQVFLQPLNPQYPMIPCNESCSVVGKVIASQWPEETFG
For B5, the denaturant m value [7] was 1.23 kcal/mol/M, the unfolding free energy [7] was 3.27 kcal/mol and the denaturant m value [8] was 2.3 kcal/mol/M. For the same protein, the unfolding free energy [8] was 5.2 kcal/mol, the denaturant m value [9] was 2.5 kcal/mol/M and the “denaturant midpoint” value [9] was 2.52 M. The unfolding free energy [9] was 6 kcal/mol, the denaturant m value [10] was 2.4 kcal/mol/M and the “denaturant midpoint” value [10] was 2.03 M. The unfolding free energy [10] was 4.8 kcal/mol, the unfolding free energy (Escherichia phage lambda, pH 7, 25 °C, Urea, CD, Sodium phosphate 20 mM, NaCl 100 mM, reversible: Yes) was 2.4 kcal/mol and the Tm (Escherichia phage lambda, pH 7, Thermal, CD, Potassium phosphate 10 mM, KCl 100 mM) was 54 °C. The Tm (Escherichia phage lambda, pH 7, Thermal, CD, Potassium phosphate 50 mM, KCl 100 mM, reversible: yes (60-75%)) was 55 °C, the Tm (Escherichia phage lambda, pH 7, Thermal, CD, Potassium phosphate 50 mM, KCl 100 mM, reversible: yes (70-100%)) was 55.7 °C and the Tm (Escherichia phage lambda, pH 7, Thermal, CD, Potassium phosphate 50 mM, KCl 100 mM) was 57 °C. For the same protein, the Tm [11] was 73.3 °C, the “unfolding enthalpy (calorimetric)” value [11] was 82.4 kcal/mol and the “unfolding enthalpy (van 't Hoff)” value [11] was 348 kcal/mol. For the same protein, the Tm [12] was 50.7 °C, the “unfolding enthalpy (calorimetric)” value [12] was 50.9 kcal/mol and the “unfolding enthalpy (van 't Hoff)” value [12] was 332 kcal/mol. It also gave an unfolding free energy (Escherichia phage lambda, pH 7.5, 22 °C, Urea, CD, Potassium phosphate 10 mM, KCl 50 mM) of 0 kcal/mol, a Tm (Escherichia phage lambda, pH 7.5, Thermal, CD, Potassium phosphate 10 mM, KCl 50 mM) of 49 °C and an unfolding free energy (Escherichia phage lambda, pH 8, 13 °C, Urea, CD, KD2PO4 20 mM, NaCl 100 mM, reversible: yes (>90%)) of 4.6 kcal/mol. The unfolding free energy (Escherichia phage lambda, pH 8, 25 °C, Urea, CD, KD2PO4 20 mM, NaCl 100 mM, reversible: yes (>90%)) was 4.3 kcal/mol, the unfolding free energy (Escherichia phage lambda, pH 8, 25 °C, Urea, Fluorescence, Potassium phosphate 0.1 M, reversible: yes) was 2.09 kcal/mol and 1 kcal/mol and the unfolding free energy (Escherichia phage lambda, pH 8, 37 °C, Urea, CD, Potassium phosphate 4 mM, NaCl 20 mM) was 0.86 kcal/mol. For the same protein, the Tm [13] was 57.2 °C, the “unfolding enthalpy (van 't Hoff)” value [13] was 68 kcal/mol and the Tm [14] was 53.4 °C and 51.5 °C. For the same protein, the “unfolding enthalpy (calorimetric)” value [14] was 65.5 kcal/mol and 65 kcal/mol, the “unfolding enthalpy (van 't Hoff)” value [14] was 69.3 kcal/mol and the Tm [15] was 53.9 °C. The “unfolding enthalpy (calorimetric)” value [15] was 53.4 kcal/mol and the “unfolding enthalpy (van 't Hoff)” value [15] was 79.8 kcal/mol.
